B1: Thyroid receptor-interacting protein 6 (Homo sapiens), Q15654 (parent)
chain: MSGPTWLPPKQPEPARAPQGRAIPRGTPGPPPAHGAALQPHPRVNFCPLPSEQCYQAPGGPEDRGPAWVGSHGVLQHTQGLPADRGGLRPGSLDAEIDLLSSTLAELNGGRGHASRRPDRQAYEPPPPPAYRTGSLKPNPASPLPASPYGGPTPASYTTASTPAGPAFPVQVKVAQPVRGCGPPRRGASQASGPLPGPHFPLPGRGEVWGPGYRSQREPGPGAKEEAAGVSGPAGRGRGGEHGPQVPLSQPPEDELDRLTKKLVHDMNHPPSGEYFGQCGGCGEDVVGDGAGVVALDRVFHVGCFVCSTCRAQLRGQHFYAVERRAYCEGCYVATLEKCATCSQPILDRILRAMGKAYHPGCFTCVVCHRGLDGIPFTVDATSQIHCIEDFHRKFAPRCSVCGGAIMPEPGQEETVRIVALDRSFHIGCYKCEECGLLLSSEGECQGCYPLDGHILCKACSAWRIQELSATVTTDC

Tests used:
Settings in all cases: with scrib_human SCRIB
[1] = variants of: B1
[2] = variants of: B1; remark: listed apart in the source
[3] = variants of: B1; remark: listed apart in the source
[4] = variants of: B1; remark: listed apart in the source

effect of a mutation on the interaction [1] | effect of a mutation on the interaction [2] | effect of a mutation on the interaction [3] | effect of a mutation on the interaction [4] | Variant
disrupting interaction | decreasing interaction |  |  | MSGPTWLPPKQPEPARAPQGRAIPRGTPGPPPAHGAALQPHPRVNFCPLPSEQCYQAPGGPEDRGPAWVGSHGVLQHTQGLPADRGGLRPGSLDAEIDLLSSTLAELNGGRGHASRRPDRQAYEPPPPPAYRTGSLKPNPASPLPASPYGGPTPASYTTASTPAGPAFPVQVKVAQPVRGCGPPRRGASQASGPLPGPHFPLPGRGEVWGPGYRSQREPGPGAKEEAAGVSGPAGRGRGGEHGPQVPLSQPPEDELDRLTKKLVHDMNHPPSGEYFGQCGGCGEDVVGDGAGVVALDRVFHVGCFVCSTCRAQLRGQHFYAVERRAYCEGCYVATLEKCATCSQPILDRILRAMGKAYHPGCFTCVVCHRGLDGIPFTVDATSQIHCIEDFHRKFAPRCSVCGGAIMPEPGQEETVRIVALDRSFHIGCYKCEECGLLLSSEGECQGCYPLDGHILCKACSAWRIQELSATVTADC [T474A]
 |  | disrupting interaction | decreasing interaction | MSGPTWLPPKQPEPARAPQGRAIPRGTPGPPPAHGAALQPHPRVNFCPLPSEQCYQAPGGPEDRGPAWVGSHGVLQHTQGLPADRGGLRPGSLDAEIDLLSSTLAELNGGRGHASRRPDRQAYEPPPPPAYRTGSLKPNPASPLPASPYGGPTPASYTTASTPAGPAFPVQVKVAQPVRGCGPPRRGASQASGPLPGPHFPLPGRGEVWGPGYRSQREPGPGAKEEAAGVSGPAGRGRGGEHGPQVPLSQPPEDELDRLTKKLVHDMNHPPSGEYFGQCGGCGEDVVGDGAGVVALDRVFHVGCFVCSTCRAQLRGQHFYAVERRAYCEGCYVATLEKCATCSQPILDRILRAMGKAYHPGCFTCVVCHRGLDGIPFTVDATSQIHCIEDFHRKFAPRCSVCGGAIMPEPGQEETVRIVALDRSFHIGCYKCEECGLLLSSEGECQGCYPLDGHILCKACSAWRIQELSATVTTDA [C476A]
